Positions count from the first letter of the chain named.
B1: P3G5(TPP-2195) (antibody, mouse IgG2a, kappa, V domains shown)
VH: QVQLQQSGPEVVRPGVSVKISCKGSGYTFTDYGIHWVKQSHAKSLEWIGVISTYNGYTNYNQKFKGKATMTVDKSSSTAYMELARLTSEDSAIYYCARAYYGNLYYAMDYWGQGTSVTVSS
VL: DIVLTQSPASLAVSLGQRATISCRANKSVSTSSYSYMHWYQQKPGQPPKLLIKYASNLESGVPARFSGSGSGTDFILNIHPVEEEDAATYYCQHSRELPFTFGSGTKLEIKR
notes: Comparative antibody, murine IgG2a; variable domains from WO2009/140177 with added constant regions
B2: P4A8(TPP-1324) (antibody, human IgG1, kappa, V domains shown)
VH: QVQLVQSGAEVKKPGASVKVSCKGSGYTFTDYGMHWVRQAPGQGLEWMGVISTYNGYTNYNQKFKGRVTMTVDKSTSTAYMELRSLRSDDTAVYYCARAYYGNLYYAMDYWGQGTLVTVSS
VL: B1 VL with N26S, I76S, V82M, E85D, A87T, T89M, Y91F, S104G
notes: Comparative antibody, human IgG1; variable domains from WO2009/140177 with added constant regions
B3: TPP-883 (antibody, human IgG1, kappa, V domains shown)
VH: EVQLLESGGGLVQPGGSLRLSCAASGFTFSPYPMMWVRQAPGKGLEWVSYISPSGGKTHYADSVKGRFTISRDNSKNTLYLQMNSLRAEDTAVYYCARGGDGYFDYFDYWGQGTLVTVSS
VL: DIQMTQSPATLSASVGDRVTITCRASQSISSYLNWYQQKPGKAPKLLIYAASSLQSGVPSRFSGSGSGTDFTLTISSLQPEDFATYYCQQSYSSPGITFGPGTKVEIKR
notes: human IgG1
B4: TPP-2148 (antibody, human IgG1, kappa, V domains shown)
VH: B3 VH with G102T
VL: B3 VL with A50Q, S93T, G96F
notes: human IgG1
B5: TPP-2093 (antibody, human IgG1, kappa, V domains shown)
VH: B3 VH with K57S, G102T
VL: B3 VL with A9S, T10S, A50Q, S93T, G96F, P101Q
notes: human IgG1
B6: TPP-1538 (antibody, human IgG1, kappa)
light: AQDIQMTQSPATLSASVGDRVTITCRASQSISSYLNWYQQKPGKAPKLLIYAASSLQSGVPSRFSGSGSGTDFTLTISSLQPEDFATYYCQQSYSSPGITFGPGTKVEIKRTVAAPSVFIFPPSDEQLKSGTASVVCLLNNFYPREAKVQWKVDNALQSGNSQESVTEQDSKDSTYSLSSTLTLSKADYEKHKLYACEVTHQGLSSPVTKSFNRGEC
heavy: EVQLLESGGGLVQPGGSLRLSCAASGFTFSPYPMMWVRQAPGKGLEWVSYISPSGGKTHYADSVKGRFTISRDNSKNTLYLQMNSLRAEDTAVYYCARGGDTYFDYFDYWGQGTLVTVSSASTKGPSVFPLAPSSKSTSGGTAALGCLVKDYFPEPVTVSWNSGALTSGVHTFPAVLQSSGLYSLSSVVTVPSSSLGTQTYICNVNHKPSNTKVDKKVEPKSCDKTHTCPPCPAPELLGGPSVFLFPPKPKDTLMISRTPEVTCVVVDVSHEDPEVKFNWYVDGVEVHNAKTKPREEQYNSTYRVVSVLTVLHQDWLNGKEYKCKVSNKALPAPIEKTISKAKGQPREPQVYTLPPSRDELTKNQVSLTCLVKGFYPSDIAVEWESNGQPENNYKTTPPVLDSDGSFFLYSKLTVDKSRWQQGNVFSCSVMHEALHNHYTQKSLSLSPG
notes: human IgG1
B7: TPP-2090 (antibody, human IgG1, kappa, V domains shown)
VH: B3 VH with M35I, K57S, G102T
VL: B3 VL with A9S, T10S, S31G, A50Q, S93T, G96F, P101Q
notes: human IgG1; also called anti-TWEAKR AK-1
B8: TPP-2149 (antibody, human IgG1, kappa, V domains shown)
VH: B3 VH with M35I, G102T
VL: B3 VL with S31G, A50Q, S93T, G96F
notes: human IgG1
B9: TPP-2084 (antibody, human IgG1, kappa, V domains shown)
VH: B3 VH with K57S, G102T
VL: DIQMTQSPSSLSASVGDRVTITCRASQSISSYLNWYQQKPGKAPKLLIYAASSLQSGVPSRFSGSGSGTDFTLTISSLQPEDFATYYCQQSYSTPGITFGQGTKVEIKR
notes: human IgG1
B10: TPP-2077 (antibody, human IgG1, kappa)
light: DIQMTQSPATLSASVGDRVTITCRASQSISSYLNWYQQKPGKAPKLLIYAASSLQSGVPSRFSGSGSGTDFTLTISSLQPEDFATYYCQQSYSSPGITFGPGTKVEIKRTVAAPSVFIFPPSDEQLKSGTASVVCLLNNFYPREAKVQWKVDNALQSGNSQESVTEQDSKDSTYSLSSTLTLSKADYEKHKLYACEVTHQGLSSPVTKSFNRGEC
heavy: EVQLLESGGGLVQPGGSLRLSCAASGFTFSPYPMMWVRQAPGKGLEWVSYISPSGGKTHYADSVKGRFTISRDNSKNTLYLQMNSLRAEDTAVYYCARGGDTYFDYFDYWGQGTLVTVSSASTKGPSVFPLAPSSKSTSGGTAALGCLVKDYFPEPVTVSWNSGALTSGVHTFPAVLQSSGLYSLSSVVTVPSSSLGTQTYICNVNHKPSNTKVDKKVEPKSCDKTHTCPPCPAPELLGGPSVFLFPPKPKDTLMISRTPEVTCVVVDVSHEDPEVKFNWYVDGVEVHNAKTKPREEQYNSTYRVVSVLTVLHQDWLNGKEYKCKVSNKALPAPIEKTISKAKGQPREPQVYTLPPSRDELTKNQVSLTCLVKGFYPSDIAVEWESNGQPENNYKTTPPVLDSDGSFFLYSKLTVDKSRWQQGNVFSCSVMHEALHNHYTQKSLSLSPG
notes: human IgG1
B11: 136.1(TPP-2194) (antibody, mouse IgG2a, kappa, V domains shown)
VH: EVKLEESGGGLVQPGGSMKLSCVASGFTFNNYWMSWVRQSPEKGLEWLAEIRLKSDNYATHYAESVKGKFTISRDDSKSRLYLQMNNLRAENTGIYYCTGGFADYFDYWGQGTTLTVSS
VL: DIVLTQSPASLTVSLGQRATISCRASQSVSTSSYSYMQWYQQRPGQPPKLLIKYATNLDSGVPARFSGSGSGTDFTLNIHPVEEEDAATYYCQHSWEIPYTFGGGTKLEIKR
notes: Comparative antibody, murine IgG2a; variable domains from WO2009/020933 with added constant regions
B12: 18.3.3(TPP-2193) (antibody, mouse IgG2a, kappa, V domains shown)
VH: EVKLGESGGGLVQPGGSMKLSCVASGFPFTKYWMNWVRQSPEKGLEWVAEIRLKSDNYATHYAESAKGRFTISRDDSRSSVYLQMNNLRAEDTAIYYCSPTYADTMDYWGQGTSVTVSS
VL: B11 VL with T12A, R24K, S33T, P47S, T56S, N57K, A87T, I98L, K107R
notes: as for B11
B13: P4A8(TPP-1324) (antibody, human IgG1, kappa, V domains shown)
VH: B2 VH
VL: B1 VL with N26S, I76S, V82M, E85D, A87T, T89M, Y91F, S104G
notes: human IgG1; variable domains from WO2009/140177 with a human IgG1 constant region added; biotinylated IgG in the ELISA
B14: 136.1(TPP-2194) (antibody, mouse IgG2a, kappa, V domains shown)
VH: B11 VH
VL: B11 VL
notes: murine IgG2a; variable domains from WO2009/020933 with a murine IgG2 constant region added; biotinylated IgG in the ELISA
B15: 18.3.3(TPP-2193) (antibody, mouse IgG2a, kappa, V domains shown)
VH: B12 VH
VL: B11 VL with T12A, R24K, S33T, P47S, T56S, N57K, A87T, I98L, K107R
notes: as for B14
B16: PDL-192(TPP-1104) (antibody, human IgG1, kappa, V domains shown)
VH: QVELVESGGGLVQPGGSLRLSCAASGFTFSSYWMSWVRQAPGKGLEWVAEIRLKSDNYATHYAESVKGRFTISRDDSKNSLYLQMNSLRAEDTAVYYCTGYYADAMDYWGQGTLVTVSS
VL: DIQMTQSPSSLSASVGDRVTITCRASQSVSTSSYSYMHWYQQKPGKAPKLLIKYASNLESGVPSRFSGSGSGTDFTLTISSLQPEDFATYYCQHSWEIPYTFGGGTKVEIKR
notes: human IgG1; variable domains from WO2009/020933 with a human IgG1 constant region added; biotinylated IgG in the ELISA

target: T1, TPP-2305, hTNFRSF12 amino acids a28-80 (recombinant human TWEAKR protein) (human, UniProt Q9NP84 28-80); assay: SPR (Biacore T100), antibody captured, TWEAKR TPP-2305 as analyte, 1:1 model
T1 construct: Soluble monomeric antigen, injected as analyte over the captured antibodies; Bought protein
Description: The antibodies were immobilized on a CM5 sensor chip using an indirect capture reagent, anti-human IgG(Fc). Reagents of the “Human Antibody Capture Kit” (BR-1008-39, GE Healthcare Biacore, Inc.) were used as described by the manufacturer.
Sensorgrams were generated after in-line reference cell correction, followed by subtraction of the buffer sample. The dissociation constant (KD) was calculated based on the ratio of association (kₒₙ) and dissociation (koff) constants, obtained by fitting sensorgrams using a 1:1 first order binding model.

Question: What does the source list for B1?
Answer: Kd: 0.5 nM; koff: 0.00122 s⁻¹; kon: 2.31e+06 M⁻¹ s⁻¹

Question: What does the source list for B2?
Answer: Kd: 2.3 nM; koff: 0.0027 s⁻¹; kon: 1.2e+06 M⁻¹ s⁻¹

Question: Which Kd does the source give for B3 here?
Answer: Its Kd is 206 nM.

Question: And the koff?
Answer: Its koff is 0.91 s⁻¹.

Question: And the kon?
Answer: Its kon is 4.4e+06 M⁻¹ s⁻¹.

Question: For B4, which Kd is on record?
Answer: Its Kd is 24.5 nM.

Question: And the koff?
Answer: The koff was 0.13 s⁻¹.

Question: And the kon?
Answer: The kon was 5.1e+06 M⁻¹ s⁻¹.

Question: Which results are given for B5?
Answer: Kd: 22.1 nM; koff: 0.09 s⁻¹; kon: 4.1e+06 M⁻¹ s⁻¹

Question: With B6 as the binder, how does the Kd read?
Answer: The Kd was 27.6 nM.

Question: What about the koff of the same binder?
Answer: The koff was 0.11 s⁻¹.

Question: And the kon?
Answer: Its kon is 4.2e+06 M⁻¹ s⁻¹.

Question: Which results are given for B7?
Answer: Kd: 12.4 nM; koff: 0.11 s⁻¹; kon: 9.1e+06 M⁻¹ s⁻¹

Question: How did the Kd turn out when B8 was run?
Answer: The Kd was 12.1 nM.

Question: And the koff?
Answer: The koff was 0.1 s⁻¹.

Question: And the kon?
Answer: Its kon is 8.4e+06 M⁻¹ s⁻¹.

Question: How did the Kd turn out when B9 was run?
Answer: The Kd was 27.6 nM.

Question: What about the koff of the same binder?
Answer: The koff was 0.11 s⁻¹.

Question: And the kon?
Answer: Its kon is 4.2e+06 M⁻¹ s⁻¹.

Question: Which results are given for B10?
Answer: Kd: 28.9 nM; koff: 0.086 s⁻¹; kon: 3e+06 M⁻¹ s⁻¹

Question: Which Kd does the source give for B11 here?
Answer: Its Kd is 0.8 nM.

Question: What about the koff of the same binder?
Answer: The koff was 0.0324 s⁻¹.

Question: And the kon?
Answer: The kon was 3.84e+07 M⁻¹ s⁻¹.

Question: For B12, which Kd is on record?
Answer: The Kd was 1.7 nM.

Question: And the koff?
Answer: The koff was 0.0285 s⁻¹.

Question: What about the kon of the same binder?
Answer: Its kon is 1.64e+07 M⁻¹ s⁻¹.

target: T2, hTNFRSF12 amino acids a28-80-T33Q-hIgG1-Fc (human); assay: ELISA: TWEAKR-Fc construct coated at 62 ng/ml, biotinylated IgG titrated from 100 nM; token + marks IC50 of 1 to […] pM
T2 construct: TWEAKR-Fc mutein, coated on the ELISA plate; also called TPP-1986
Description: (§1) To obtain dose-reaction data, the different TWEAKR-Fc muteins were coated at a low concentration (62 ng/ml) onto a 384-well Maxisorb ELISA plate, and a serial 2-fold dilution of biotinylated IgG beginning with a concentration of 100 nM was used as a soluble binding partner. Detection was carried out using streptavidin-HRP and Amplex Red.
(§2) IgGs were biotinylated using an about 2-fold molar excess of biotin-LC-NHS (Pierce; Cat. No. 21347) according to the instructions of the manufacturer and desalted using Zeba desalting columns (Pierce; Cat. No. 89889).

Question: Does B13 bind?
Answer: Result: binds

Question: Does B14 bind?
Answer: Result: binds

Question: Does B15 bind?
Answer: Result: binds

target: T3, hTNFRSF12 amino acids a28-80-S40R-hIgG1-Fc (human); assay: as above
T3 construct: TWEAKR-Fc mutein, coated on the ELISA plate; also called TPP-1987
Description: as §1, §2

Question: Does B13 bind?
Answer: Result: binds

Question: Does B14 bind?
Answer: Result: binds

Question: Does B15 bind?
Answer: Result: binds

target: T4, hTNFRSF12 amino acids a28-80-M50A-hIgG1-Fc (human); assay: as above
T4 construct: TWEAKR-Fc mutein, coated on the ELISA plate; also called TPP-1988
Description: as §1, §2

Question: Does B13 bind?
Answer: Result: binds

Question: Does B16 bind?
Answer: Result: binds

Question: Does B14 bind?
Answer: Result: binds

Question: Does B15 bind?
Answer: Result: binds

target: T5, hTNFRSF12 amino acids a28-80-H60K-hIgG1-Fc (human); assay: as above
T5 construct: TWEAKR-Fc mutein, coated on the ELISA plate; also called TPP-1989
Description: as §1, §2

Question: Does B13 bind?
Answer: Result: binds

Question: Does B14 bind?
Answer: Result: binds

Question: Does B15 bind?
Answer: Result: binds

target: T6, hTNFRSF12 amino acids a28-80-L65Q-hIgG1-Fc (human); assay: as above
T6 construct: TWEAKR-Fc mutein, coated on the ELISA plate
Description: as §1, §2

Question: Does B13 bind?
Answer: Result: binds

Question: Does B14 bind?
Answer: Result: binds

Question: Does B15 bind?
Answer: Result: binds

target: T7, hTNFRSF12 amino acids a28-80-hIgG1-Fc (human); assay: as above
T7 construct: wild-type TWEAKR-Fc (dimeric Fc fusion), coated on the ELISA plate; also called TPP-599; HUMAN-TNFRSF12Aaa28-80-hIgG1-Fc
Description: as §1, §2

Question: Does B13 bind?
Answer: Result: binds

Question: Does B14 bind?
Answer: Result: binds

Question: Does B15 bind?
Answer: Result: binds
